Values belong to the molecule of their own block, whether it stands above or below them.
Key:
[1] = molecular target: Purified PCSK9 carrying a C-terminal FLAG tag (UniProt Q8NBP7); experiment: AlphaScreen PCSK9-FLAG/His-LDLR; non-specific control; log[antibody] ug/ml -1.9909
[2] = molecular target: Purified PCSK9 carrying a C-terminal FLAG tag (UniProt Q8NBP7); experiment: as above; remark: listed apart in the source
[3] = molecular target: Purified PCSK9 carrying a C-terminal FLAG tag (UniProt Q8NBP7); experiment: AlphaScreen PCSK9-FLAG/His-LDLR; non-specific control; log[antibody] ug/ml -0.08241
[4] = molecular target: Purified PCSK9 carrying a C-terminal FLAG tag (UniProt Q8NBP7); experiment: AlphaScreen PCSK9-FLAG/His-LDLR; non-specific control; log[antibody] ug/ml -0.55953
[5] = molecular target: Purified PCSK9 carrying a C-terminal FLAG tag (UniProt Q8NBP7); experiment: AlphaScreen PCSK9-FLAG/His-LDLR; non-specific control; log[antibody] ug/ml -1.03665
[6] = molecular target: Purified PCSK9 carrying a C-terminal FLAG tag (UniProt Q8NBP7); experiment: AlphaScreen PCSK9-FLAG/His-LDLR; non-specific control; log[antibody] ug/ml -1.51377
[7] = molecular target: Purified PCSK9 carrying a C-terminal FLAG tag (UniProt Q8NBP7); experiment: AlphaScreen PCSK9-FLAG/His-LDLR; non-specific control; log[antibody] ug/ml -2.46802
[8] = molecular target: Purified PCSK9 carrying a C-terminal FLAG tag (UniProt Q8NBP7); experiment: AlphaScreen PCSK9-FLAG/His-LDLR; non-specific control; log[antibody] ug/ml 0.394711
[9] = molecular target: Purified PCSK9 carrying a C-terminal FLAG tag (UniProt Q8NBP7); experiment: AlphaScreen PCSK9-FLAG/His-LDLR; non-specific control; log[antibody] ug/ml 0.871832
[10] = molecular target: Purified PCSK9 carrying a C-terminal FLAG tag (UniProt Q8NBP7); experiment: AlphaScreen PCSK9-FLAG/His-LDLR; non-specific control; log[antibody] ug/ml 1.348954
[11] = molecular target: Purified PCSK9 carrying a C-terminal FLAG tag (UniProt Q8NBP7); experiment: AlphaScreen PCSK9-FLAG/His-LDLR; non-specific control; log[antibody] ug/ml 1.826075
[12] = molecular target: Purified PCSK9 carrying a C-terminal FLAG tag (UniProt Q8NBP7); experiment: AlphaScreen PCSK9-FLAG/His-LDLR; non-specific control; log[antibody] ug/ml -0.08241; remark: listed apart in the source
[13] = molecular target: Purified PCSK9 carrying a C-terminal FLAG tag (UniProt Q8NBP7); experiment: AlphaScreen PCSK9-FLAG/His-LDLR; non-specific control; log[antibody] ug/ml -0.55953; remark: listed apart in the source
[14] = molecular target: Purified PCSK9 carrying a C-terminal FLAG tag (UniProt Q8NBP7); experiment: AlphaScreen PCSK9-FLAG/His-LDLR; non-specific control; log[antibody] ug/ml -1.03665; remark: listed apart in the source
[15] = molecular target: Purified PCSK9 carrying a C-terminal FLAG tag (UniProt Q8NBP7); experiment: AlphaScreen PCSK9-FLAG/His-LDLR; non-specific control; log[antibody] ug/ml -1.51377; remark: listed apart in the source
[16] = molecular target: Purified PCSK9 carrying a C-terminal FLAG tag (UniProt Q8NBP7); experiment: AlphaScreen PCSK9-FLAG/His-LDLR; non-specific control; log[antibody] ug/ml -2.46802; remark: listed apart in the source
[17] = molecular target: Purified PCSK9 carrying a C-terminal FLAG tag (UniProt Q8NBP7); experiment: AlphaScreen PCSK9-FLAG/His-LDLR; non-specific control; log[antibody] ug/ml -2.94514
[18] = molecular target: Purified PCSK9 carrying a C-terminal FLAG tag (UniProt Q8NBP7); experiment: AlphaScreen PCSK9-FLAG/His-LDLR; non-specific control; log[antibody] ug/ml 0.394711; remark: listed apart in the source
[19] = molecular target: Purified PCSK9 carrying a C-terminal FLAG tag (UniProt Q8NBP7); experiment: AlphaScreen PCSK9-FLAG/His-LDLR; non-specific control; log[antibody] ug/ml 0.871832; remark: listed apart in the source
[20] = molecular target: Purified PCSK9 carrying a C-terminal FLAG tag (UniProt Q8NBP7); experiment: AlphaScreen PCSK9-FLAG/His-LDLR; non-specific control; log[antibody] ug/ml 1.348954; remark: listed apart in the source
[21] = molecular target: Purified PCSK9 carrying a C-terminal FLAG tag (UniProt Q8NBP7); experiment: AlphaScreen PCSK9-FLAG/His-LDLR; non-specific control; log[antibody] ug/ml 1.826075; remark: listed apart in the source
[22] = molecular target: mouse liver LDL receptor (C57BL/6j mice) (mouse) (UniProt P35951); experiment: cell-based or functional assay
mouse liver LDL receptor (C57BL/6j mice) (mouse), sequence (P35951 22-862): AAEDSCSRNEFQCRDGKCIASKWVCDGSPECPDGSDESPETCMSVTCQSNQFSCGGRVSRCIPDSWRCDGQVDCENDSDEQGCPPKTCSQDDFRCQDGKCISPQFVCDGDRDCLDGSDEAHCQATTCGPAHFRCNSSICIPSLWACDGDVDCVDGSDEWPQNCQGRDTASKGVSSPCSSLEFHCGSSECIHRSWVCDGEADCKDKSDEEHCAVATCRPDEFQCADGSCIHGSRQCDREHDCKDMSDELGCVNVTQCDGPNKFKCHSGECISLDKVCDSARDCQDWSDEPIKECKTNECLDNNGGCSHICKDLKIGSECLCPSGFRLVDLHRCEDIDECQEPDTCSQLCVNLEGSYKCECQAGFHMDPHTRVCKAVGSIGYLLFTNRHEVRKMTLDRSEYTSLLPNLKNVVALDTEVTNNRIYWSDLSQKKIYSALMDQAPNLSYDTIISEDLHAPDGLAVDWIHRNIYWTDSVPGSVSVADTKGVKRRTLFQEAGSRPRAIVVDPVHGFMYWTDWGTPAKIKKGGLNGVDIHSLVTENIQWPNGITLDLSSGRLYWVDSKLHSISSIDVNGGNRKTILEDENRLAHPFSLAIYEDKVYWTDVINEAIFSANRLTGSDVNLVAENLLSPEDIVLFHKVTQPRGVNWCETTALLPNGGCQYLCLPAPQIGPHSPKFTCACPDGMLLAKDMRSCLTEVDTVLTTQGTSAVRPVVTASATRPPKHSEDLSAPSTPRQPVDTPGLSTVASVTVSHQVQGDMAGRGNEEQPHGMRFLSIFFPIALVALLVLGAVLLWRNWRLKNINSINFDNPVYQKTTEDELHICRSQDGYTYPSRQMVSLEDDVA

[23] = molecular target: T1, Purified PCSK9 carrying a C-terminal FLAG tag (UniProt Q8NBP7 31-692); experiment: AlphaScreen, inhibition of PCSK9-Flag/His-tagged LDL receptor interaction
T1 construct: also called PCSK9-FLAG; PCSK9-Flag; not shown: C-terminal FLAG tag
T1 sequence (Q8NBP7 31-692 limits assumed): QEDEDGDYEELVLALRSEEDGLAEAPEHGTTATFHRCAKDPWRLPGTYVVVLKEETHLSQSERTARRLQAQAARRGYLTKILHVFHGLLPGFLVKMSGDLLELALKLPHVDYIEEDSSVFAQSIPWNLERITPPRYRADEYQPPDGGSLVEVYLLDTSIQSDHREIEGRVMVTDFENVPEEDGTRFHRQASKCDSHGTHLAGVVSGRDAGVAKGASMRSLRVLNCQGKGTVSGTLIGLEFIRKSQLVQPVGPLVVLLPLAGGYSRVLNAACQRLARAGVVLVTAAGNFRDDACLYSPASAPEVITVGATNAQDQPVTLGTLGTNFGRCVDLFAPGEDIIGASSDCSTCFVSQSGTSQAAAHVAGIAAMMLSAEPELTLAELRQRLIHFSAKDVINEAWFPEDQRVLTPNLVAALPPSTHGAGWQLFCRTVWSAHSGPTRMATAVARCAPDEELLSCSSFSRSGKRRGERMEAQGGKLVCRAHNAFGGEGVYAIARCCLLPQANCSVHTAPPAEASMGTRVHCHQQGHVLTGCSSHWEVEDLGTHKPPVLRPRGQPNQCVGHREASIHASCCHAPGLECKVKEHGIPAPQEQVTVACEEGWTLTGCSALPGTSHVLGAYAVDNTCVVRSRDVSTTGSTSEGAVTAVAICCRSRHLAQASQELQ
Protocol: (§1) This technique required that “donor” and “acceptor” beads be brought into proximity via protein—protein interaction, resulting in increased luminescence (Ullman et al., Proc. Nat. Acad. Sci. (1994) 91:5426-5430). […] About 2.5 μl of biotinylated anti-Flag-M2 antibody (1.8 μg/ml) was added and the mixture incubated for 1 hour. Afterward 5 μl of streptavidin donor bead and nickel chelate acceptor bead (1:1 mixture) was added and the assay incubated overnight. AlphaScreen signal (counts per second) was analyzed using an EnVision microplate reader (Perkin-Elmer). All data points were determined in triplicate. Assays were carried out at 23° C. in buffer containing 25 mM HEPES, 0.1 M NaCl, pH 7.4, 0.1% BSA. The inhibition assays were determined similarly with slight adjustments to assay volumes and protein concentrations.

[24] = molecular target: T1, Purified PCSK9 carrying a C-terminal …; experiment: AlphaScreen, inhibition of PCSK9-Flag/His-tagged LDL receptor interaction, relative to no antibody
Protocol: as §1

Purified PCSK9 carrying a C-terminal FLAG tag (UniProt Q8NBP7), sequence (Q8NBP7 31-692 limits assumed): as above

AlphaScreen mean counts [1]: 135000 counts
AlphaScreen mean counts [2]: 80700 counts
AlphaScreen mean counts [3]: 140000 counts
AlphaScreen mean counts [4]: 139000 counts
AlphaScreen mean counts [5]: 127000 counts
AlphaScreen mean counts [6]: 134000 counts
AlphaScreen mean counts [7]: 140000 counts
AlphaScreen mean counts [8]: 136000 counts
AlphaScreen mean counts [9]: 140000 counts
AlphaScreen mean counts [10]: 135000 counts
AlphaScreen mean counts [11]: 114000 counts
AlphaScreen mean counts [12]: 82800 counts
AlphaScreen mean counts [13]: 88100 counts
AlphaScreen mean counts [14]: 84400 counts
AlphaScreen mean counts [15]: 83100 counts
AlphaScreen mean counts [16]: 78200 counts
AlphaScreen mean counts [17]: 82100 counts
AlphaScreen mean counts [18]: 79600 counts
AlphaScreen mean counts [19]: 79600 counts
AlphaScreen mean counts [20]: 74400 counts
AlphaScreen mean counts [21]: 61900 counts
Molecule: non-specific IgG control (antibody)

Mean liver LDLR/GAPDH, mice given Saline and PCSK9 (western blot, lightest exposure) [22]: 0.081 AU
Molecule: human PCSK9 Protein (injected intravenously into mice) (from UniProt Q8NBP7 31-692)

% Change of mean liver LDLR/GAPDH against saline only, mice given Saline and PCSK9 (darker exposure) [22]: -78.8%
% Change of mean liver LDLR/GAPDH against saline only, mice given Saline and PCSK9 (lightest exposure) [22]: -82%
Mean liver LDLR/GAPDH, mice given Saline and PCSK9 (western blot, darker exposure of LDLR panel) [22]: 0.123 AU
Molecule: human PCSK9 Protein (injected intravenously into mice) (from UniProt Q8NBP7 31-692) (enzyme)

The remaining lines, values behind:

B1: 77D10 anti-PCSK9 antibody (IgG2b) (antibody, V domains shown)
VH: EVQLQQSGAELVRSGASVKLSCTTSGFNIKDYYIHWVKQRPEQGLEWIGWIDPENGDTEYAPKFQGKATMTADTSSNTAYLQLSSLTSADTAVYYCNAYYRYDDGTWFPYWGQGTLVTVSA
VL: DIQLTQSPASLSASVGETVTITCRASGNIHSYLAWYQQKQGKSPQFLVDNAKTLPDGVPSRFSVSGSGTQYSLKINSLQPEDFGTYYCQHFWNTPWTFGGGTKLEIKR
IC50 [23]: 38 nM
% inhibition at 450 nM of antibody [24]: 62%

B2: 75B9 anti-PCSK9 antibody (IgG2a) (antibody, V domains shown)
VH: EVQLQQSGADLVKPGASVKLSCTASGFNIKDTYIHWVKQRPEQGLEWIGRIDPANGHTEYDPKFQGRATLTTDTSSNTAYLQLFSLTSEDSAVYFCARSYYGSIFAYWGQGTLVTVSA
VL: QIVLTQSPAIMSASPGEKVTISCSASSSVSYLFWYQQKPGSSPKPWIFRTSYLASGVPARFSGSGSGTSFSLTISSMEAEDAATYYCHQYHTYPPTFGGGTKLEIKR
IC50 [23]: 0.5 nM
% inhibition at 450 nM of antibody [24]: 100%

B3: 11B5 anti-PCSK9 antibody (IgG2a) (antibody, V domains shown)
VH: EVQLQQSGAELVKPGASVTLSCTASGFNIKDTYMHWVNQRPEQGLVWIGRIDPANGHTEYDPKFQDKATITTDTSSNTAYLHLSSLTSGDTAVYYCARSYFGSIFAYWGQGTLVTVSA
VL: QIVLTQSPAIMSASPGEKVTISCSASSSVSYLYWYQQKPGSSPKPWIFRSSHRASGVPARFSGSGSGTSYSLTISSMEAEDAATYYCHQYQSYPPTFGGGTKLEIKR
IC50 [23]: 0.4 nM
% inhibition at 450 nM of antibody [24]: 100%

B4: 29C10 anti-PCSK9 antibody (IgG2a) (antibody, V domains shown)
VH: EVLLQQSVAELVRPGASVRLSCTASGFNIKDTYIHWVRQRPEQGLEWFGWIDPANGYTKYAPNFQGKATLTTDTSSNTAYLHLSSLTSEDSAIYYCARGYYRYYSLDYWGQGTSVTVSS
VL: DIQMTQTTSSLSASLGDRVTISCRASQDISNYLNWYQQKPDGTVKLLIYYSSRLHSGVPSRFSGRGSGTDYSLTISTLEQEDIATYFCQQGKTLPLTFGAGTKLELKR
IC50 [23]: 13 nM
% inhibition at 450 nM of antibody [24]: 71%
